The labels stand for the following.
B1: Vab2-GST (natural protein)
chain: MVADLTKGILKWKSRIEFDAVGSSSYYEELKGLPPLASHKKLTQAAIFNSTKYELLQVKKDILSIYEVVSRDIDEERNQMQQIELQLKKSLKKVEHSYKNVLKQRASTNCINGNDRLLANAEKKIGSLNEELACVNDIVSDIVNNLTALNANLPKKAQLLKDDSINVAHYPLLFDFLHKSCPKSIIATSEASIHENASPSPLLEHDELPAESINSFYGENELQSDSLAPLQTHDDNISSCKKILPPKFNTTSGPSIETNFENISADGLTYTKCSLKNSISLT
B4: HS-Cnl1 (natural protein, S. cerevisiae, UniProt Q06333 1-122, looked up)
chain: MQDNSSHSRESASAGDDPLGIDKLTVDYDYLLYKMRDYVQSIQLDTTELCKKQNEVMVNGIIENTIDKNIAKFKELLEKCDTLENHYEMLNQLAIITDTFKERIAEAVNNYNSLKKGASKSK

Holding throughout (experiment): pull-down
Test [1] addresses HS-Snn1 (S. cerevisiae, UniProt P48232 1-102).
For test [2], the target named is B1.
In test [3] the target is GST-Snn1 (S. cerevisiae, UniProt P48232 1-102).
The target of test [4] is B4.
Test [5] concerns the target T1, GST-Kxd1 (S. cerevisiae, UniProt P53158 1-218).
T1 sequence (looked up): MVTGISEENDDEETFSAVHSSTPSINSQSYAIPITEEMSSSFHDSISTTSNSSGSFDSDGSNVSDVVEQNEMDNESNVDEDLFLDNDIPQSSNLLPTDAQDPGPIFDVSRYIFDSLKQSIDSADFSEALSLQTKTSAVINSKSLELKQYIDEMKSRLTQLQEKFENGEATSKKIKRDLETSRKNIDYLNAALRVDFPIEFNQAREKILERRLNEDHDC

Take B1: the binding result in test [1] is on record as “binds”.

B2: HS-Bli1 (natural protein, S. cerevisiae, UniProt P35727 1-113, looked up)
chain: MGEQNKLYYDVEKLVNSLQESFDLDCAQSVSLFTSKSRSNEAWLEELENKFKLKDDVELDDVENLRAEIDMKLNMLEDKVSYYERLYKELEEFQNEIKIKTVVNNRRQSRTPK
Take B2: the binding result in test [2] and in test [3] was “binds” throughout.

B3: GST-Bli1 (natural protein, S. cerevisiae, UniProt P35727 1-113, looked up)
chain: MGEQNKLYYDVEKLVNSLQESFDLDCAQSVSLFTSKSRSNEAWLEELENKFKLKDDVELDDVENLRAEIDMKLNMLEDKVSYYERLYKELEEFQNEIKIKTVVNNRRQSRTPK
B3: the binding result in test [4] is “binds”. Regarding B4, the binding result in test [5] was “binds”.

These data come from PMC4571306 (Molecular Biology of the Cell, 2015).
